Substrate: NC(=O)C1=CN([C@@H]2O[C@H](COP(=O)(O)OP(=O)(O)OC[C@H]3O[C@@H](n4cnc5c(N)ncnc54)[C@H](O)[C@@H]3O)[C@@H](O)[C@H]2O)C=CC1
Assay: purified protein
Format: biochemical, Pseudomonas aeruginosa
Details: varied 1,4-benzoquinone, 20 mM KPi, 200 mM NaCl, pH 7.0, 25 °C

B1: NADH:quinone oxidoreductase (NQO), PA1024 (Pseudomonas aeruginosa PAO1) (protein)
chain: MGVFRTRFTETFGVEHPIMQGGMQWVGRAEMAAAVANAGGLATLSALTQPSPEALAAEIARCRELTDRPFGVNLTLLPTQKPVPYAEYRAAIIEAGIRVVETAGNDPGEHIAEFRRHGVKVIHKCTAVRHALKAERLGVDAVSIDGFECAGHPGEDDIPGLVLLPAAANRLRVPIIASGGFADGRGLVAALALGADAINMGTRFLATRECPIHPAVKAAIRAADERSTDLIMRSLRNTARVARNAISQEVLAIEARGGAGYADIAALVSGQRGRQVYQQGDTDLGIWSAGMVQGLIDDEPACAELLRDIVEQARQLVRQRLEGMLAGV
notes: full-length gene PA1024 in pET20b(+), expressed in E. coli Rosetta(DE3)pLysS, purified; EC 1.6.5.9
Q: What does the source list for B1?
A: Km: 70 ± 10 µM; kcat: 27 ± 1 s⁻¹
